From publication PMC11602988 (The Journal of Biological Chemistry, 2024)
Entries after “also recorded” stand apart in the source; their conditions may differ.

Key:
[1] = target: T1, OCT1 Phe244Ala variant (Homo sapiens, UniProt O15245, F244A); experiment: Stereoselective cell uptake of racemic substrates (chiral LC-MS/MS), OCT1 Phe244Ala variant; conditions: 2.5 μM racemic substance, 2 min
T1 sequence (O15245 1-554 F244A): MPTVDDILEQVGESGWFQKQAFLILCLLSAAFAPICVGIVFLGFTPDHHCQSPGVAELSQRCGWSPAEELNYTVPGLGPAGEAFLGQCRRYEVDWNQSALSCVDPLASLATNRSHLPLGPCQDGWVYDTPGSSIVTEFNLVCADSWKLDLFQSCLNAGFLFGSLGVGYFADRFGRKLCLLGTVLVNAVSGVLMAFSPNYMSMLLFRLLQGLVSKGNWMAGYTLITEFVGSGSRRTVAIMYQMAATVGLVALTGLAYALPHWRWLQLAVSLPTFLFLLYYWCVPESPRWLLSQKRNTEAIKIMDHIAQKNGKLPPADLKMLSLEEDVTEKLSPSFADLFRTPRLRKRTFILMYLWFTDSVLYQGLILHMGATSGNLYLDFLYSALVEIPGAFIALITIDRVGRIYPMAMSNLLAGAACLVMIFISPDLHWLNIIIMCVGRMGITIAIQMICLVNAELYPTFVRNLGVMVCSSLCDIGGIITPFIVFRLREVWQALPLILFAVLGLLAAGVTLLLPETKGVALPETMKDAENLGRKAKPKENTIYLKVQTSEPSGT
Protocol: (§1) Intracellular concentrations were quantified after chiral chromatography by mass spectrometry and are presented as mean ± SD of three independent experiments. […] Whenever the absolute steric conformation of the enantiomers was unknown, the enantiomers were termed according to their elution as enantiomer-1 (E1) and enantiomer-2 (E2).
(§2) For uptake studies, 300,000 HEK293 cells were plated in each well of 24-well plates precoated with poly-D-lysine 48 prior to the experiment. On the day of the experiment, cells were washed once with prewarmed to 37 °C HBSS+ (Hank’s balanced salt solution supplemented with 10 mM Hepes, both Sigma-Aldrich). […] Uptake was stopped by adding ice-cold HBSS+ and cells were washed twice with ice-cold buffer before cell lysis was done using 80% acetonitrile containing an appropriate internal standard for eventual mass spectrometry. Relative quantification was done by comparison of transporter-overexpressing cells to empty vector–transfected controls. For uptake kinetic experiments, cells were incubated with increasing concentrations of substrate dissolved in HBSS+. Absolute quantification was done later by comparison to a standard curve in lysis buffer with known concentration.
Chromatography was carried out with in reversed-phase mode with an aqueous mobile phase buffered with ammonium acetate and supplemented with 2-propanol or methanol as organic modifiers (Table S2). Order of elution of enantiomers was obtained either by reference literature ([28], [29], [30], [31], [32], [33]) or by injecting single enantiomers. Whenever there was no information available, the first eluting enantiomer was referred to as E1 and the second as E2.
(§3) Transport ratios were determined as relative fold-increase of the uptake in transporter-overexpressing cells over empty vector–transfected control cells. For transport kinetic experiments, absolute substrate quantification was done by signal comparison to a standard curve with known concentrations. Net uptake was then determined by subtracting the uptake into empty vector–transfected cells from transporter-overexpressing cells. […] Vmax defines the maximum transport velocity, Km refers to the substrate concentration required to reach half vmax. The intrinsic clearance Clint is the ratio of vmax over Km.

[2] = target: T1, OCT1 Phe244Ala variant; experiment: Uptake screening (transport ratio over empty vector), HEK293 cells overexpressing OCT1 Phe244Ala variant; format: cell-based; design: expressed in transfected cells; conditions: for relative_Phe244Ala_uptake_in%: Phe244Ala uptake relative to OCT1 WT;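 for all read-outs here: stably transfected HEK293 cells, intracellular substrate quantified by HPLC-tandem mass spectrometry in cell lysates, uptake in HBSS+ buffer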
Protocol: (§4) All experiments were carried out using transporter-overexpressing HEK293 cells. […] Cells were cultivated in Dulbecco’s Modified Eagle’s medium supplemented with 10% fetal calf serum, 100 U/ml penicillin, and 100 μg/ml streptomycin. Cells were passaged twice a week and kept in culture for no longer than 30 passages.
as §2
(§5) Intracellular drug concentrations were detected and quantified by HPLC coupled to mass spectrometry. […] Substance-specific conditions were used to adjust the retention times of the analytes.
as §3

[3] = target: T2, OCT1 WT (Homo sapiens, UniProt O15245); experiment: Uptake screening (transport ratio over empty vector), HEK293 cells overexpressing OCT1 WT; format: cell-based; design: expressed in transfected cells;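 note: intracellular substrate levels quantified by HPLC–tandem mass spectrometry after uptake in HBSS+ buffer at 37 °C, stable Flp-In HEK293 lines, fold change versus empty vector–transfected cells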
T2 sequence (O15245 1-554): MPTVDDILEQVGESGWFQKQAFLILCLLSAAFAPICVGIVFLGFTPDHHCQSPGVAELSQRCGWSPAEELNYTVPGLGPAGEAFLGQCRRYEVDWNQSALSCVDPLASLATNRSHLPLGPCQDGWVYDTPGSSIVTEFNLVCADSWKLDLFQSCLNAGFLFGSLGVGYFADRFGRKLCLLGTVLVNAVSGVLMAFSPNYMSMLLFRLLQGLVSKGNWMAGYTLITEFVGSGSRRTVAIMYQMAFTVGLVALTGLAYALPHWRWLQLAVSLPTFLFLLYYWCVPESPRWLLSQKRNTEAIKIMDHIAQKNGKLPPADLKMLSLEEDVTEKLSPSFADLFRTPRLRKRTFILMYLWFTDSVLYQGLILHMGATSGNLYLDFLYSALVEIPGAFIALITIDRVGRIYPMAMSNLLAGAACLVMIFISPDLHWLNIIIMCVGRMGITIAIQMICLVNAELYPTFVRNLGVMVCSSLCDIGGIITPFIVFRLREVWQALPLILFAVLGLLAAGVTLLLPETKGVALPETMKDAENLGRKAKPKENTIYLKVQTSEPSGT

[4] = target: T2, OCT1 WT; experiment: Stereoselective cell uptake of racemic substrates (chiral LC-MS/MS), OCT1 WT; conditions: 2.5 μM racemic substance, 2 min
Protocol: as §1
For uptake studies, 300,000 HEK293 cells were plated in each well of 24-well plates precoated with poly-D-lysine 48 prior to the experiment. On the day of the experiment, cells were washed once with prewarmed to 37 °C HBSS+ (Hank’s balanced salt solution supplemented with 10 mM Hepes, both Sigma-Aldrich). […] Relative quantification was done by comparison of transporter-overexpressing cells to empty vector–transfected controls. […] Absolute quantification was done later by comparison to a standard curve in lysis buffer with known concentration. […]
Transport ratios were determined as relative fold-increase of the uptake in transporter-overexpressing cells over empty vector–transfected control cells. For transport kinetic experiments, absolute substrate quantification was done by signal comparison to a standard curve with known concentrations. Net uptake was then determined by subtracting the uptake into empty vector–transfected cells from transporter-overexpressing cells. […]

[5] = target: T1, OCT1 Phe244Ala variant; experiment: cell-based
Protocol: (§6) For cellular inhibition experiments, 300,000 HEK293 cells were plated in poly-D-lysine precoated 24 well plates 48 h in advance. To study transporter inhibition, cells were incubated with 2 μM (R,S)-ethambutol with and without 20 μM inhibitor both dissolved in HBSS+.
(§7) In inhibition experiments, transporter activity was calculated as it follows: %OCT1activity=[Substrateinhibited]−[SubstrateEV]/[Substratenon−inhibited]−[SubstrateEV]
(§8) Substrateinhibited is the uptake of ethambutol into transporter-overexpressing cells in presence of an inhibitor, whereas substratenon-inhibited refers to the ethambutol uptake without coincubation with an inhibitor. SubstrateEV refers to the ethambutol uptake into empty vector–transfected control cells. Percent inhibition values where then calculated as in the following: %transporterinhibition=100%−transporteractivity In concentration-dependent inhibition experiments, the transporter activity was plotted against the log10 of inhibitor concentrations. The data was then analyzed by the following formula to determine IC50 values: Y=Ymin+(Ymax−Ymin)/1+10^log10(IC50−x)∙hillslope
(§9) Y describes the transporter activity, whereas Ymax is to the maximum and Ymin to the minimal transporter activity. X refers to the log10 of inhibitor concentrations, IC50 characterizes the half-maximal inhibitory concentration, and hill slope describes the slope factor.

[6] = target: T2, OCT1 WT; experiment: cell-based
Protocol: as §6, §7, §8, §9

[7] = target: T1, OCT1 Phe244Ala variant; experiment: Inhibition of (R,S)-ethambutol uptake, HEK293 cells overexpressing OCT1 Phe244Ala; conditions: 20 μM inhibitor, 2 μM (R,S)-ethambutol, 5 min
Protocol: as §6, §7, §8, §9

[8] = target: T1, OCT1 Phe244Ala variant; experiment: Concentration-dependent uptake kinetics, HEK293 cells overexpressing OCT1 Phe244Ala;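 note: cells exposed to rising substrate concentrations in buffer, intracellular drug measured by HPLC-tandem mass spectrometry, quantified against a standard curve, uptake referenced to empty vector-transfected HEK293 controls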
Protocol: as §4, §2, §5, §3

[9] = target: T1, OCT1 Phe244Ala variant; conditions: cited from earlier work
[10] = target: T2, OCT1 WT; experiment: Concentration-dependent uptake kinetics, HEK293 cells overexpressing OCT1 WT
Protocol: as §4, §2, §5, §3

[11] = substrate: CC(C)(C)NCC(O)COc1cccc2c1CCC(=O)N2; experiment: cells, lysate or membranes; conditions: other: OCT1 WT, HEK293, 2 min incubation, net uptake, mean ± SD of three experiments
[12] = substrate: CC(CCc1ccc(O)cc1)NCCc1ccc(O)c(O)c1; experiment: cells, lysate or membranes; conditions: other: OCT1 WT, HEK293, 2 min incubation, net uptake, mean ± SD of three experiments
Protocol: as §4, §2, §5, §3

[13] = substrate: CN1CCN(CC(=O)N2c3ccccc3C(=O)Nc3cccnc32)CC1; experiment: cells, lysate or membranes; conditions: other: OCT1 WT, HEK293, 2 min incubation, net uptake, mean ± SD of three experiments
[14] = substrate: COc1cc(CCN)cc(OC)c1OC; experiment: cells, lysate or membranes; conditions: other: OCT1 WT, HEK293, 2 min incubation, net uptake, mean ± SD of three experiments
[15] = substrate: CCN1CCCC1CNC(=O)c1cc(S(N)(=O)=O)ccc1OC; experiment: cells, lysate or membranes; conditions: other: OCT1 WT, HEK293, 2 min incubation, net uptake, mean ± SD of three experiments
[16] = substrate: CN(C)CCc1c[nH]c2ccc(C[C@H]3COC(=O)N3)cc12; experiment: cells, lysate or membranes; conditions: other: OCT1 WT, HEK293, 2 min incubation, net uptake, mean ± SD of three experiments
[17] = substrate: Cc1ncc(C[n+]2csc(CCO)c2C)c(N)n1; experiment: cells, lysate or membranes; conditions: other: OCT1 WT, HEK293, 2 min incubation, net uptake, mean ± SD of three experiments
[18] = substrate: CC(=O)OC(C)C[N+](C)(C)C; experiment: cells, lysate or membranes; conditions: other: OCT1 WT, HEK293, 2 min incubation, net uptake, mean ± SD of three experiments
[19] = substrate: NC(N)=Nc1nc(CSCCC(N)=NS(N)(=O)=O)cs1; experiment: cells, lysate or membranes; conditions: other: OCT1 WT, HEK293, 2 min incubation, net uptake, mean ± SD of three experiments
[20] = substrate: CC(C)[N+](C)(CCOC(=O)C1c2ccccc2Oc2ccccc21)C(C)C; experiment: cells, lysate or membranes; conditions: other: OCT1 WT, HEK293, 2 min incubation, net uptake, mean ± SD of three experiments
[21] = uptake ratio of OCT1 Phe244Ala-overexpressing HEK293 cells over empty vector
[22] = uptake ratio of OCT1 WT-overexpressing HEK293 cells over empty vector

CN[C@@H]1CCc2[nH]c3ccc(C(N)=O)cc3c2C1 [Frovatriptan]
Stereoselectivity of Phe244Ala variant compared to WT [1]: opposite stereoselectivities; also recorded: only one enantiomer of the racemic mixtures showed altered transport | relative_Phe244Ala_uptake_in% [2]: 43.181% | Mean_transport_ratio_Phe244Ala [2, 21]: 10.097 | Mean_transport_ratio_WT [3, 22]: 22.068

CCOc1ccccc1OCCN[C@H](C)Cc1ccc(OC)c(S(N)(=O)=O)c1 [Tamsulosin]
Stereoselectivity of transport by the Phe244Ala variant [1]: lacked any stereoselective transport | Stereoselectivity of uptake via WT OCT1 [4]: stereoselective uptake | relative_Phe244Ala_uptake_in% [2]: 40.118% | Mean_transport_ratio_Phe244Ala ([2]; uptake ratio over empty vector, HEK293 cells overexpressing OCT1 Phe244Ala): 1.803 | Mean_transport_ratio_WT ([3]; uptake ratio over empty vector, HEK293 cells overexpressing OCT1 WT): 3.001

CN(C)CCc1ccc(O)cc1 [Hordenine]
relative_Phe244Ala_uptake_in% [2]: 11.246% | Mean_transport_ratio_Phe244Ala [2, 21]: 1.16 | IC50 [5]: 53.2 µM | IC50 [6]: 3 µM | Mean_transport_ratio_WT [3, 22]: 2.424 | Inhibition of the Phe244Ala mutant compared to the WT transporter (screening) [7]: strongly reduced inhibition

CN(C)C(=N)N=C(N)N [Metformin]
vmax ([8]; OCT1 Phe244Ala, HEK293, 2 min incubation, net uptake): 4361 ± 1497 pmol × mg protein^−1 × min^−1 | Clint ([8]; OCT1 Phe244Ala, ratio of vmax over Km): 1.54 ± 2.02 ml × g Protein^−1 × min^−1 | Km at 2 min ([8]; human, HEK293 cells overexpressing OCT1 Phe244Ala): 2830 ± 2730 µM | Maximum transport capacity (vmax), Phe244Ala compared to WT ([8]; uptake kinetics, in words): reduced transport capacity | Transport activity of Phe244Ala in % of WT activity ([2]; 2.5 μM substrate, 2 min, Phe244Ala uptake relative to WT): ~10% | relative_Phe244Ala_uptake_in% [2]: 14.754% | Mean_transport_ratio_Phe244Ala [2, 21]: 1.869 | Consequence of the Phe244Ala substitution on transport [9]: complete loss of transport activity | vmax ([10]; OCT1 WT, HEK293, 2 min incubation, net uptake): 10,813 ± 2176 pmol × mg protein^−1 × min^−1 | Clint ([10]; OCT1 WT, ratio of vmax over Km): 3.71 ± 2.82 ml × g Protein^−1 × min^−1 | Km at 2 min ([10]; human, HEK293 cells overexpressing OCT1 WT): 2910 ± 1630 µM | Mean_transport_ratio_WT [3, 22]: 6.891

B1: OCT1 WT (Homo sapiens) (protein)
chain: MPTVDDILEQVGESGWFQKQAFLILCLLSAAFAPICVGIVFLGFTPDHHCQSPGVAELSQRCGWSPAEELNYTVPGLGPAGEAFLGQCRRYEVDWNQSALSCVDPLASLATNRSHLPLGPCQDGWVYDTPGSSIVTEFNLVCADSWKLDLFQSCLNAGFLFGSLGVGYFADRFGRKLCLLGTVLVNAVSGVLMAFSPNYMSMLLFRLLQGLVSKGNWMAGYTLITEFVGSGSRRTVAIMYQMAFTVGLVALTGLAYALPHWRWLQLAVSLPTFLFLLYYWCVPESPRWLLSQKRNTEAIKIMDHIAQKNGKLPPADLKMLSLEEDVTEKLSPSFADLFRTPRLRKRTFILMYLWFTDSVLYQGLILHMGATSGNLYLDFLYSALVEIPGAFIALITIDRVGRIYPMAMSNLLAGAACLVMIFISPDLHWLNIIIMCVGRMGITIAIQMICLVNAELYPTFVRNLGVMVCSSLCDIGGIITPFIVFRLREVWQALPLILFAVLGLLAAGVTLLLPETKGVALPETMKDAENLGRKAKPKENTIYLKVQTSEPSGT
Km [11]: 449 ± 438 µM | Vmax [11]: 0.000453 µmol/min/mg | Vmax/Km [11]: 1.01 µL/min/mg | Km [12]: 40.1 ± 57.7 µM | Vmax [12]: 0.000122 µmol/min/mg | Vmax/Km [12]: 3.03 µL/min/mg | Km [13]: 69.3 ± 103 µM | Vmax [13]: 3e-05 µmol/min/mg | Vmax/Km [13]: 0.43 µL/min/mg | Km [14]: 38.2 ± 14.3 µM | Vmax [14]: 0.000185 µmol/min/mg | Vmax/Km [14]: 4.84 µL/min/mg | Km [15]: 89.2 ± 85.2 µM | Km [16]: 98.5 ± 87.8 µM | Vmax [16]: 0.00213 µmol/min/mg | Vmax/Km [16]: 21.6 µL/min/mg | Km [17]: 1161 ± 1029 µM | Vmax [17]: 0.00872 µmol/min/mg | Vmax/Km [17]: 7.51 µL/min/mg | Km [18]: 413 ± 314 µM | Vmax [18]: 0.00584 µmol/min/mg | Vmax/Km [18]: 14.1 µL/min/mg | Km [19]: 64.7 ± 50.2 µM | Vmax [19]: 0.00296 µmol/min/mg | Vmax/Km [19]: 45.8 µL/min/mg | Km [20]: 1.26 ± 1.12 µM | Vmax [20]: 0.000271 µmol/min/mg | Vmax/Km [20]: 224 µL/min/mg
